The chains are these.
B1: OR4K15 (parent)
chain: GUUAACGGUCAUAGGCCAUGGAAACUAGGAGCACCAUUUCGCUGCCAGUGAAGAAAUGAACAAAGAAAAUCUGGGCCAGGCAGGCAUCAAAAGAAAUAGUCUUGCGCUCAACCAGAAAGUCUGUAAUCAUUUUAAGGGUA

This series covers variants of B1. Description: self-cleavage, relative activity (ratio to wild type); higher = more cleavage; in vitro, sequencing; the parent is a self-cleaving ribozyme.
For the variant U108C A134C, the self-cleavage came out at 0.01. With A111C A140G the figure was 0.01. With C113A A114G the figure was 0.01.

Regarding G106A U132C, the self-cleavage came to 0.01. With U108C A117U the figure was 0.01. With G115A U132G the figure was 0.01; with U108C A129G, 0.01. In the case of A116G U124C it was 0.36; in that of A114U A134G, 0.04. With U108A A140C, the self-cleavage came out at 0.04.

On to U108A A140G, for which the self-cleavage was found to be 0. With A116G U122C the figure was 0.4; with U108A U132A, 0.01; with U108A U132C, 0.03. With C109U A117G the figure was 0.44; with A110U A118U, 0.75; with A110U A118G, 0.72. In the case of C112U A140U it was 0.01; in that of A114U U130C, 0.01. As to A114C A125G, the self-cleavage was 0.01. With A114G A135U the figure was 0.15; with A114G A135G, 0.93. For the variant A116U A129U, the self-cleavage was determined as 0.29.

Turning to A117U U133C, the self-cleavage came to 1.23. With A116C U131C the figure was 0; with C113U, 0.08; with C113A, 0.03. On to C113G, for which the self-cleavage is 0.01. Turning to U108C C128U, the self-cleavage was 0.04. With A117G U131C the figure was 1.15. For the variant A111U U120C, the self-cleavage stood at 0.03.

Regarding G115A U120C, the self-cleavage came to 0.03. With U103C A135G the figure was 0.95; with A110C U131A, 0.17; with A116G U131G, 0.3. For the variant A116G U131C, the self-cleavage is 0.27. In the case of C113A A140G it was 0; in that of G106A A110G, 0.01; in that of U108C U132A, 0.02.

Take U108C U132C: the self-cleavage is 0.01. With A114U U132A the figure was 0.08. In the case of A114U U132C it was 0.02; in that of C107A U108C, 0.02. In the case of A111G U139G it was 0.02. As to A111G U139C, the self-cleavage came to 0.01. In the case of G106C U127C it was 0. With A117U A125G the figure was 0.99. In the case of U103C G106A, the self-cleavage was 0.02. With A111G A140G the figure was 0; with A114U A118U, 0.02. In the case of A110G G138U it was 0.13; in that of U108G U133C, 0.02. In the case of C109A it was 0.38; in that of C109G, 0.02. In the case of C109U, the self-cleavage was 0.49. For the variant U103C U122A, the self-cleavage stood at 1.14. In the case of A111G C112G it was 0.

On to U103C A125G, for which the self-cleavage worked out at 0.69.

For U108C A110G, the self-cleavage was determined as 0.01.

Regarding U108C A110C, the self-cleavage is 0. With A110C A125G the figure was 0.11; with A117G A126G, 1.27. With U108A A129U the figure was 0.03; with A114G G123A, 0.12; with A110G A111G, 0.02. Turning to A114G A117G, the self-cleavage came to 0.37.

Regarding A114G A116U, the self-cleavage came out at 0.05.

As for A116U U131C, the self-cleavage was 0.11. In the case of A114U A116G it was 0.01; in that of C112A A125G, 0.01; in that of U108G A118G, 0.01. In the case of A117U U130C it was 1.05; in that of A111U A114U, 0.02. In the case of A110U U122C it was 0.92; in that of U108C C121U, 0.02; in that of G106A A118G, 0.02. Turning to G106A A118U, the self-cleavage stood at 0.

As to C109A U120C, the self-cleavage was 0.36.

Regarding U108C U139A, the self-cleavage turned out to be 0.04. On to A110U U130C, for which the self-cleavage was determined as 1.06.

As for A110U U139C, the self-cleavage worked out at 0.59. With U103C A126G, the self-cleavage was determined as 0.35.

As to A111C U132C, the self-cleavage worked out at 0.01. In the case of C113U U132A it was 0.06; in that of A117G U124C, 0.69; in that of G106U A129G, 0.01.

Take U108A U139A: the self-cleavage came out at 0.04.

A110G U139C: the self-cleavage was determined as 0.17. With A118C U132C the figure was 0.57; with G104A A140G, 0.09; with C107U U122A, 0. With A114C U127C, the self-cleavage is 0. Turning to A110G A114U, the self-cleavage came out at 0.03. With A110G A114G the figure was 0.05. Take A110G A114C: the self-cleavage was 0.01.

Consider A114U U124G, for which the self-cleavage is 0.06. With G106C A129U the figure was 0. As to C105A U108C, the self-cleavage stood at 0.01. In the case of A117U A126G, the self-cleavage stood at 0.89.

As to U108G U122C, the self-cleavage was 0.02. With A110G U124A the figure was 0.09; with A110G U124C, 0.14. On to A116U A126U, for which the self-cleavage stood at 0.21. With U108C U124A the figure was 0.01. With U108C U124C the figure was 0; with A117U A135G, 0.7. Regarding U108A U122C, the self-cleavage is 0.04. As for A116G U139C, the self-cleavage turned out to be 1.17. In the case of C107U C121U it was 0.01. In the case of A111U A116G it was 0.04.

Regarding G104U A117G, the self-cleavage amounted to 0.02. With U108C C109U the figure was 0.01. In the case of A118G A126G it was 0.83; in that of U103C G104U, 0.03; in that of A111U A125G, 0.01.

As to A114C U122G, the self-cleavage amounted to 0.01. With A114C U122A the figure was 0.04; with A110U A135G, 1.63; with A116U U120C, 0.15. In the case of C105U U139C it was 0.08; in that of A118G A134U, 1.03; in that of G106C U108C, 0. In the case of A117G U120C it was 0.23; in that of C113G U131C, 0.

As to G106A A135G, the self-cleavage was found to be 0.02. With A117C G136A the figure was 0.78; with A114G U130C, 0.38.

Regarding C107A U133A, the self-cleavage was found to be 0.02. With A114G U133C the figure was 0.12; with A117G G138C, 2.13; with A114G G138C, 0.31. In the case of U108A C121U it was 0; in that of U103C U108C, 0.01. In the case of A117G U127A it was 2.7; in that of A116U U133C, 0.21. For the variant A114G A129U, the self-cleavage was found to be 0.13. In the case of A114G A129G it was 0.07; in that of U108G A116G, 0. In the case of C109U U127G it was 0.62; in that of A114U A117G, 0.04. With C109U A125G the figure was 0.17; with U108G, 0.02; with U108C, 0.01. With U108A, the self-cleavage amounted to 0.02.

For G106A A140U, the self-cleavage was 0.05.

Consider G106A U139A, for which the self-cleavage amounted to 0. With A117G A125G the figure was 0.66; with C107G A117G, 0.01. With A110C A114U the figure was 0.01. As for C109U A126G, the self-cleavage was 0.14. With A110U A140G the figure was 2.04. In the case of A111G A117C it was 0. Take A111G A117U: the self-cleavage was determined as 0. In the case of A117G U130C it was 0.39; in that of A117G U130A, 0.26. With A110G A129U the figure was 0.08; with A110G A129G, 0.11; with A114C A117G, 0.05. In the case of A110G A118G it was 0.08. Turning to A110C A135U, the self-cleavage came to 0.06. On to A110G G136A, for which the self-cleavage turned out to be 0.09.

As for A110C A117G, the self-cleavage is 0.64. Regarding A110G A135G, the self-cleavage was 0.12. With C112U A118G the figure was 0; with A118G A140G, 1.32. With A118G A140U the figure was 1.28; with U108C A135G, 0.01.

For the origin of these results see the RNAGym collection of RNA variant scans (doi:10.7554/elife.90254).
